Results: publication doi:10.1101/743492

Biological target: mCherry-labeled WASp (Drosophila melanogaster)
Test: FRET or BRET

FRET probability: 0.24
Substance: eGFP-labeled Cdc42 (from UniProt P40793 1-191) (natural protein)
